In US12448418B2, “Activatable therapeutic peptides and uses thereof” (priority 2022, dated 2025):

What was measured:
[1] = tested on: Pseudomonas aeruginosa PAO1; assay: Antibacterial assay (MIC) on PAO1, conjugate with and without thrombin pre-cleavage; type: cell-based; conditions: for fold activity masking in term of antibacterial activity on PAO1: peptide formulated into ABD-AMP conjugate, with and without thrombin pre-cleavage (FIGS. 6A and B)
Text: (§1) FIG. 3. In vitro evaluation of a model ABD-AMP conjugate. (A) Schematic of (ABD)2-(EEG)6-S12-(D)Pex. (B) Antibacterial assay on PAO1 treated with conjugate with and without thrombin pre-cleavage. OD600 indicates extent of bacteria viability. (C) MTS-based mammalian toxicity evaluation of L929 fibroblasts. (D) Hemolysis assay on mouse red blood cells.
(§2) FIG. 6. Evaluation of activity masking for alternative AMPs and alternative application. Antibacterial assay on PAO1 treated with (A) (ABD)2-(EEG)6-512-POL7080 and (B) (ABD)2-(EEG)6-S12-Colistin with and without thrombin pre-cleavage. OD600 indicates extent of bacteria viability. (C) Evaluation of anticancer activity masking of (ABD)2-(EEG)6-S12-(D)Pex on HepG2 cell line by an MTS assay.
(§3) To verify activity masking of our therapeutics, we evaluated antibacterial activity of our model ABD-AMP conjugate candidate ((ABD)2-(EEG)6-S12-(D)Pex) (FIG. 3A) with and without thrombin pre-activation on Pseudomonas aeruginosa PAO1. […] Overall, formulating AMP as an ABD-AMP conjugate provides an activity mask that can be activated with cleavage of the cleavable linker.
To ensure broad application across different therapeutic peptides, we formulated additional AMPS (POL7080 and colistin) into ABD-AMP conjugates and evaluated the extent of activity masking. […] Given that several AMPS are widely explored for anticancer property capitalizing on higher negative charge of cancer cell membrane, we determined whether ABD-AMP conjugate formulation could be utilized in the cancer context. Cell toxicity assay of (ABD)2-(EEG)6-S12-(D)Pex was performed on human hepatocellular carcinoma cell line HepG2 (FIG. 6C).

[2] = In vivo toxicity evaluation after intravenous treatment; conditions: for H&E staining of kidney sections, pathological features / H&E staining of spleen sections, pathological features / serum alanine aminotransferase (ALT) level / serum aspartate aminotransferase (AST) level / serum blood nitrogen urea (BUN) level: 10 mg/kg AMP equivalent dose
Text: FIG. 5. In vivo toxicity evaluation of a model ABD-AMP conjugate. (A) Treatment groups and their body conditions. (B) Serum chemistry analysis of ALT, AST, and BUN. (C) H&E staining of spleen and kidneys sections. Arrows indicate protein casts or apoptotic bodies.
Given a favorable biodistribution profile of ABD-AMP conjugate, we next evaluated if our conjugate could improve safety profile of AMP. We performed toxicity evaluation in mice following intravenous treatments with free AMP (D)Pex or conjugate (ABD)2-(EEG)6-S12-(D)Pex at 5 and 10 mg/kg AMP equivalent doses (FIG. 5A). […] In the spleens of the (D)Pex-treated mice, patches of apoptotic lymphocytes were observed. These pathological features were not observed in mice treated with the conjugate at the equivalent AMP dose. Altogether, our conjugate formulation effectively improves safety profile of AMP following systemic administration.

mouse red blood cells = conditions: intact conjugate
Text: as §1, §3

L929 fibroblasts = conditions: intact conjugate; MTS
Text: as §1, §3

[3] = tested on: human hepatocellular carcinoma cell line HepG2; assay: Cell toxicity (MTS) assay on HepG2, anticancer activity masking; type: cell-based
Text: as §2
To ensure broad application across different therapeutic peptides, we formulated additional AMPS (POL7080 and colistin) into ABD-AMP conjugates and evaluated the extent of activity masking. A 64-fold activity masking was similarly observed for both peptides in term of antibacterial activity on PAO1 (FIGS. 6A and B) confirming robust activity masking of AMPS across diverse secondary structures. Given that several AMPS are widely explored for anticancer property capitalizing on higher negative charge of cancer cell membrane, we determined whether ABD-AMP conjugate formulation could be utilized in the cancer context. Cell toxicity assay of (ABD)2-(EEG)6-S12-(D)Pex was performed on human hepatocellular carcinoma cell line HepG2 (FIG. 6C). […] Altogether, ABD-AMP conjugate platform represents a generalizable platform for formulating diverse activatable therapeutic peptides for different disease applications with aberrant protease microenvironment such as microbial infection and cancer.

[4] = Text: FIG. 4. In vivo pharmacokinetic and biodistribution evaluations of a model ABD-AMP conjugate. […] (B) Pharmacokinetics of ABD-AMP-Cy7 conjugate and a free AMP-Cy7 control. (C) Experimental timeline for time-lapse biodistribution and conjugate activation evaluation in a PAO1 lung infection model. Quantification of intact and active AMP contents in (D) lungs, (E) kidneys, (F) liver, and (G) spleen at different time points. […] (I) Estimated fold change at equivalent lung exposure of active AMP content.
To study time-lapse biodistribution and conjugate activation in an infection context, we first infected mice with PAO1 via intratracheal instillation (IT) (FIG. 4C). The conjugate or free AMP control were intravenously (IV) administered 6 h post infection. The mice were euthanized at different time points, and organs were harvested and homogenized for quantification of conjugate and released AMP contents via SDS-PAGE analysis. […] Alternatively, when estimating at the equivalent lung exposure of active AMP, our conjugate reduced exposure of active AMP to kidneys, liver, and spleen by 3.1, 9.3, and 4.2 fold, respectively (FIG. 4I).

## Cyclo-(T-W-I-(Dab)-(Orn)-(Dab)-(Dab)-W-(Dab)-(Dab)-A-S-p-P) (SEQ ID NO: 88) [POL7080]
[1]
  fold activity masking in term of antibacterial activity on PAO1: 64 fold

## 6-methyloctanoic acid-Dab-Thr-Dab-(Dab-Dab-(D-Leu)-Leu-Dab-Dab-Thr) (SEQ ID NO: 84) [colistin]
[1]
  fold activity masking in term of antibacterial activity on PAO1: 64 fold

## CC[C@@H](C)[C@@H](NC(=O)CN)C(=O)NCC(=O)N[C@H](CCCCN)C(=O)N[C@H](Cc1ccccc1)C(=O)N[C@H](CC(C)C)C(=O)N[C@H](CCCCN)C(=O)N[C@H](CCCCN)C(=O)N[C@H](C)C(=O)N[C@H](CCCCN)C(=O)N[C@H](CCCCN)C(=O)N[C@H](Cc1ccccc1)C(=O)NCC(=O)N[C@H](CCCCN)C(=O)N[C@H](C)C(=O)N[C@H](Cc1ccccc1)C(=O)N[C@@H](C(=O)N[C@H](CCCCN)C(=O)N[C@@H](C(=O)N[C@H](CC(C)C)C(=O)N[C@H](CCCCN)C(=O)N[C@H](CCCCN)C(N)=O)[C@H](C)CC)C(C)C [(D)Pex, GiGkflkkakkfGkafvkilkk-CONH2 (SEQ ID NO: 74)]
[2]; 10 mg/kg, 24 h end point
  mice that did not survive to the end point: 3 out of 5
[2]; mice
  H&E staining of kidney sections, pathological features: significant damage
  H&E staining of spleen sections, pathological features: significant damage
  serum alanine aminotransferase (ALT) level: exceeding the reference range
  serum aspartate aminotransferase (AST) level: exceeding the reference range
  serum blood nitrogen urea (BUN) level: exceeding the reference range
[2]; mice, 10 mg/kg, observed 24 h
  body condition (signs of distress): evident signs of distress

B1: (ABD)2-(EEG)6-S12-(D)Pex: model ABD-AMP conjugate, Table 8, SEQ ID NO: 157 (conjugate)
chain: GLKEAKEKAIEELKKAGITSDYYFDLINKAKTVEGVNALKDEILKAGGGGSGGGGSGGGGSLKEAKEKAIEELKKAGITSDYYFDLINKAKTVEGVNALKDEILKAHHHHHHSPSTPPTPSPSTPPEEGEEGEEGEEGEEGEEGPLGLRSWGCGIGKFLKKAKKFGKAFVKILKK
modifications: MISC_FEATURE - Chemically linked by a (DBCO-Maleimide)-Azidoacetyl; SITE 155 MISC_FEATURE - D amino acid; MISC_FEATURE - D amino acid
[2]; mice
  H&E staining of kidney sections, pathological features: not observed
  H&E staining of spleen sections, pathological features: not observed
  serum alanine aminotransferase (ALT) level: within the normal reference range
  serum aspartate aminotransferase (AST) level: within the normal reference range
  serum blood nitrogen urea (BUN) level: within the normal reference range
[2]; mice, 5 and 10 mg/kg AMP equivalent doses, observed 24 h
  tolerability / body condition: well tolerated up to the highest dose tested with no signs of distress
Mouse red blood cells
  masking of hemolysis: effectively mask
L929 fibroblasts
  masking of mammalian toxicity on L929 fibroblasts: effectively mask
[3]; thrombin pre-cleaved
  cell toxicity on HepG2, after activation by target protease (Thrombin): restored
[3]; without protease activation
  cell toxicity on HepG2, intact conjugate: natively inactive
[1]; intact conjugate versus thrombin pre-activated, PAO1, MIC = lowest treatment concentration that fully inhibits bacteria growth
  fold higher minimum inhibitory concentration (MIC) of intact conjugate: 64 fold

B2: (ABD)2-(EEG)6-S12-(D)Pex-Cy7: Cy7-labelled model ABD-AMP conjugate, Table 8, SEQ ID NO: 158 (conjugate)
chain: GLKEAKEKAIEELKKAGITSDYYFDLINKAKTVEGVNALKDEILKAGGGGSGGGGSGGGGSLKEAKEKAIEELKKAGITSDYYFDLINKAKTVEGVNALKDEILKAHHHHHHSPSTPPTPSPSTPPEEGEEGEEGEEGEEGEEGPLGLRSWGCGIGKFLKKAKKFGKAFVKILKKK
modifications: Cy7 label; MISC_FEATURE - Chemically linked -(DBCO-Maleimide)-Azidoacetyl; SITE 155 MISC_FEATURE - D amino acid; MISC_FEATURE - D amino acid; SITE 176 MISC_FEATURE - linked to (Cy7)
[4]; compared to the free (D)Pex-Cy7 control
  fold increase in area-under-the-concentration-time curve (AUC), circulation: 91 fold
[4]; mouse, in vivo
  AUC fold higher active AMP delivered to the lungs: 2.6 fold
  AUC fold reduction of active AMP exposure, kidneys: 1.2 fold
  AUC fold reduction of active AMP exposure, liver: 3.6 fold
  AUC fold reduction of active AMP exposure, spleen: 1.6 fold
  fold reduction of active AMP exposure, kidneys, at equivalent lung exposure: 3.1 fold
  fold reduction of active AMP exposure, liver, at equivalent lung exposure: 9.3 fold
  fold reduction of active AMP exposure, spleen, at equivalent lung exposure: 4.2 fold
